The assay has as its target light chain of the anti-IL8 IgG1 mAb of the CHO DP-12 cell line. Kind of assay: SEC + native MS.

For one substance, stoichiometry N results are on record in publication doi:10.1101/2020.11.04.368480.

By stoichiometry N is commonly meant a count of units in the complex or per binding partner. In the case of “light chain of the anti-IL8 IgG1 mAb of the CHO DP-12 cell line (antibody)”, the stoichiometry N is 2.
